Molecular target: MART-1 presented by HLA-A*0201 on 624 mel-CIITA cells (human)
Assay: cell-based or functional assay

IFN-gamma (pg/ml); Donor 1; 624-CIITA: 1480 pg/mL
IFN-gamma (pg/ml); Donor 2; 624-CIITA: 1440 pg/mL
Substance: F5 (anti-MART-1) TCR

Source: patent US20150246959A1
